{"source": "patent US20190389905A1", "about": "(OREGON STATE UNIVERSITY, published 2019)", "binders": {"B1": {"name": "synthetic peptide C7-3m2 (H-ACSYCRLNLWGGGS-NH2) (peptide)", "peptide": "H-ACSYCRLNLWGGGS-NH2", "modifications": "cysteine pairing not given here"}, "B2": {"name": "phage-displayed peptide C7-3 (CNYCRLNLW), M13 phage clone from the Ph.D.-C7C library (peptide, not shown: large carriers)", "peptide": "CNYCRLNLW", "notes": "Tested as whole phage (10^10 PFU per well) in the phage ELISA; Trp stands where the library's second Cys would be; also called phage-expressed C7-3"}, "B3": {"name": "synthetic peptide C7-3 (H-ACNYCRLNLWGGGS-NH2) (peptide)", "peptide": "H-ACNYCRLNLWGGGS-NH2", "modifications": "cysteine pairing not given here"}, "B4": {"name": "synthetic peptide C7-3 (H-…-NH2) (peptide)", "peptide": "H-ACNYCRLNLWGGGS-NH2", "modifications": "cysteine pairing not given here"}, "B5": {"name": "synthetic peptide C7-3m1 (H-ACNYSRLNLWGGGS-NH2) (peptide)", "peptide": "H-ACNYSRLNLWGGGS-NH2"}, "B6": {"name": "C7-3Bio, C7-3 biotinylated at the N-terminus (BiotinAhx-ACNYCRLNLWGGGS-NH2) (peptide)", "peptide": "{Biotin-Ahx}-ACNYCRLNLWGGGS-NH2", "modifications": "cysteine pairing not given here", "notes": "Immobilized on streptavidin biosensors in the BLI experiment; also called biotinylated C7-3"}, "B7": {"name": "synthetic peptide C7-3m2 (H-…-NH2) (peptide)", "peptide": "H-ACSYCRLNLWGGGS-NH2", "modifications": "cysteine pairing not given here"}, "B8": {"name": "synthetic peptide C7-3P (H-ACNFCRLNLWGGGS-NH2) (peptide)", "peptide": "H-ACNFCRLNLWGGGS-NH2", "modifications": "cysteine pairing not given here"}, "B9": {"name": "synthetic peptide C7-3A (H-ACNACRLNLWGGGS-NH2) (peptide)", "peptide": "H-ACNACRLNLWGGGS-NH2", "modifications": "cysteine pairing not given here"}}, "key": {"[1]": {"target": "T1, sAniA, recombinant AniA (NGO1276) of Neisseria gonorrhoeae FA1090 lacking the N-terminal palmitoylation … (Neisseria gonorrhoeae FA1090, UniProt Q02219 19-392)", "T1 sequence": "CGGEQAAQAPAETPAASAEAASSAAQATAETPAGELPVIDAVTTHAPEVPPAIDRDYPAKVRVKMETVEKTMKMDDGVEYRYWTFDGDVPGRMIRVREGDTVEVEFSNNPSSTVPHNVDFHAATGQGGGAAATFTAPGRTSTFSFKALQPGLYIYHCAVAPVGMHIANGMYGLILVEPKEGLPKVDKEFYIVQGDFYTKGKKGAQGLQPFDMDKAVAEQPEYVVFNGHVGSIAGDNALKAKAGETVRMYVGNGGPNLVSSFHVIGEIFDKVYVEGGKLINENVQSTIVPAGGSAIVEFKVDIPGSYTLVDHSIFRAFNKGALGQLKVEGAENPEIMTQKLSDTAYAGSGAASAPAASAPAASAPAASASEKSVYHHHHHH", "assay": "cell-based or functional assay"}, "[2]": {"target": "T1, sAniA, recombinant AniA (NGO1276) of …", "assay": "phage ELISA on sAniA-coated wells; reference is phage-displayed 12-5", "description": "Individual wells in 96-well transparent plates (Greiner-Bio) were coated with 100 μL of 100 pg/mL of sAniA suspended in 0.1 M NaHCO₃pH 8.6 and incubated overnight at 4° C. in an airtight humidified box. After incubation, excess target solution was shaken out and wells were filled with 300 μL of blocking buffer (0.1 M NaHCO₃pH 8.6, 5 mg/mL BSA). Following 2 h incubation at 4° C., blocking buffer was removed and wells were washed six times with 200 μL of TBST (50 mM Tris-HCl pH 8.6, 150 mM NaCl, 0.5% Tween). Isolated individual phage amplifications (10¹⁰ PFU) in 100 μl of TBST were incubated at room temperature for 1 h with rocking. All wells were then cleared by shaking and washed six times with 200 μL of TBST. A solution containing Anti-M13 HRP linked-Monoclonal Antibodies (NEB) (1:5,000 dilution in blocking buffer) was distributed at 200 μL per well and incubated with rocking at room temperature for 1 h. Wells were washed six times with TBST and incubated with Turbo TMB-ELISA for 30 min with rocking at room temperature. […] Data from seven independent experiments are shown with mean and SEM"}, "[3]": {"target": "AniA expressed by intact N. gonorrhoeae FA1090 ΔaniA/Plac::aniA cells (Neisseria gonorrhoeae FA1090), Q02219", "assay": "cell-based or functional assay"}, "[4]": {"target": "T1, sAniA, recombinant AniA (NGO1276) of …", "assay": "biolayer interferometry (OctetRed 96): C7-3Bio on streptavidin sensors, sAniA 50-1000 nM in solution, 2:1 heterogeneous ligand model, average ± SEM of three experiments", "description": "Streptavidin (SA) biosensors (ForteBio) were loaded with C7-3Bio peptides for 10 min. Unloaded tips were used as a control. The sAniA samples were prepared in Kinetic Buffer in concentrations of 50, 100, 500, and 1000 nM. The baseline was established for 240 s and the association and dissociation steps were performed for 500 s. Experiments were performed in three biological replicates with the curve fitting using 2:1 (Heterogeneous Ligand) model and KD value calculations were completed using Octet Data Analysis (version 9).\nThe BLI experiments were performed using steady state method and curve fitting of the association and dissociation responses."}}, "note": "The star is where a group is joined. Biotin = O=C1N[C@H]2[C@H](CS[C@H]2CCCCC(=O)*)N1; Ahx = NCCCCCC(=O)O"}
{"binder": "B1", "values": [{"measurement": "IC50 of inhibition of nitrite reductase activity of sAniA (DAN assay)", "setting": "[1]", "value": 4.81, "unit": "µM"}]}
{"binder": "B2", "values": [{"measurement": "fold lower relative binding in comparison to 12-5", "setting": "[2]", "value": "~2", "unit": "fold"}]}
{"binder": "B3", "values": [{"measurement": "IC50 of inhibition of nitrite reductase activity of sAniA (DAN assay)", "setting": "[1]", "value": 10.2, "unit": "µM"}]}
{"binder": "B4", "values": [{"measurement": "percent inhibition of nitrite reductase activity of intact N. gonorrhoeae cells at 0.6 mM peptide", "setting": "[3]", "value": 50, "unit": "%"}]}
{"binder": "B5", "values": [{"measurement": "IC50 of inhibition of nitrite reductase activity of sAniA (DAN assay)", "setting": "[1]", "value": 5.91, "unit": "µM"}]}
{"binder": "B6", "values": [{"measurement": "IC50 of inhibition of nitrite reductase activity of AniA (DAN assay)", "setting": "[1]", "value": 13.5, "unit": "µM"}, {"measurement": "Kd", "setting": "[4]", "value": 0.775, "unit": "µM"}]}
{"binder": "B7", "values": [{"measurement": "percent inhibition of nitrite reductase activity of intact N. gonorrhoeae cells at 0.3 mM peptide", "setting": "[3]", "value": 50, "unit": "%"}, {"measurement": "percent inhibition of nitrite reductase activity of intact N. gonorrhoeae cells at 0.6 mM peptide", "setting": "[3]", "value": 90, "unit": "%"}]}
{"binder": "B8", "values": [{"measurement": "IC50 of inhibition of nitrite reductase activity of sAniA (DAN assay)", "setting": "[1]", "value": "> 105", "unit": "µM"}]}
{"binder": "B9", "values": [{"measurement": "IC50 of inhibition of nitrite reductase activity of sAniA (DAN assay)", "setting": "[1]", "value": "~25.2", "unit": "µM"}]}
